Test results from FireProtDB.
“And” between values parts separate entries of the source, which are not always exact repeats. Equal values may be shown once.

Details: whole UniProt chain shown
[1] = Vibrio harveyi, pH 7, 18 °C, Urea, CD, phosphate 50 mM, reversible: yes
[2] = Sus scrofa, pH 6.5, 20 °C, GdnHCl, Fluorescence, MES-NaOH 20 mM, NaCl 100 mM, reversible: yes
[3] = Thermus thermophilus (strain ATCC 27634 / DSM 579 / HB8), pH 7.5, 25 °C, GdnHCl, Fluorescence, tris-HCl 20 mM, reversible: yes
[4] = Streptomyces tendae, pH 2, Thermal, DSC, Sodium phosphate 10 mM, Na2SO4 10 mM, reversible: yes
[5] = Streptomyces tendae, pH 5, 25 °C, Thermal, DSC, Sodium phosphate 10 mM, Na2SO4 10 mM, reversible: yes
[6] = Streptomyces tendae, pH 7, Thermal, DSC, Sodium phosphate 10 mM, Na2SO4 10 mM, reversible: yes
[7] = Thermus thermophilus, pH 7, 25 °C, GdnHCl, CD, Potassium phosphate 20 mM, potassium chloride 50 mM
[8] = Thermus thermophilus (strain ATCC 27634 / DSM 579 / HB8), pH 7.4, 29 °C, Thermal, CD, Potassium phosphate 50 mM, reversible: Yes
[9] = Thermus thermophilus (strain ATCC 27634 / DSM 579 / HB8), pH 7.4, 35 °C, Thermal, CD, Potassium phosphate 50 mM, reversible: Yes
[10] = Thermus thermophilus (strain ATCC 27634 / DSM 579 / HB8), pH 7.4, Thermal, absorbance, Potassium buffer

B1: Alkanal monooxygenase alpha chain wild type, P07740 (protein)
chain: MKFGNFLLTYQPPELSQTEVMKRLVNLGKASEGCGFDTVWLLEHHFTEFGLLGNPYVAAAHLLGATETLNVGTAAIVLPTAHPVRQAEDVNLLDQMSKGRFRFGICRGLYDKDFRVFGTDMDNSRALMDCWYDLMKEGFNEGYIAADNEHIKFPKIQLNPSAYTQGGAPVYVVAESASTTEWAAERGLPMILSWIINTHEKKAQLDLYNEVATEHGYDVTKIDHCLSYITSVDHDSNRAKDICRNFLGHWYDSYVNATKIFDDSDQTKGYDFNKGQWRDFVLKGHKDTNRRIDYSYEINPVGTPEECIAIIQQDIDATGIDNICCGFEANGSEEEIIASMKLFQSDVMPYLKEKQ
With B1 the denaturant m value [1] was 2.26 kcal/mol/M and 2.18 kcal/mol/M, the unfolding free energy [1] was 2.36 kcal/mol and 6.04 kcal/mol and the denaturant m value (Vibrio harveyi, pH 7, 18 °C, Urea, Fluorescence, NaH2PO4-K2HPO4 50 mM, transition: 3, reversible: yes) was 2.38 kcal/mol/M and 3.99 kcal/mol/M. It also gave a denaturant m value (Vibrio harveyi, pH 7, 18 °C, Urea, Fluorescence, phosphate 50 mM, reversible: yes) of 2.47 kcal/mol/M.

B2: Glutathione S-transferase omega-1 wild type, Q9N1F5 (protein)
chain: MSGGSARSLGKGSAPPGPVPEGLIRVYSMRFCPFAQRTLLVLNAKGIRHQVININLKNKPEWFFQKNPSGLVPVLENSQGQLIYESAITCEYLDEAYPGKKLLPDDPYEKACQKMVFELSSKVPPLLIRFIRRENEADCSGLKEELRKEFSKLEEVLTKKKTTYFGGSSLSMIDYLIWPWFERLEALELNECIDHTPKLKLWMAAMMKDPAVSALHIEPRDLRAFNDLYLQNSPEACDYGL
With B2 the denaturant m value [2] was 11.1 kcal/mol/M, the unfolding free energy [2] was 23.3 kcal/mol and the denaturant m value (Sus scrofa, pH 6.5, 20 °C, Urea, Fluorescence, MES-NaOH 20 mM, NaCl 100 mM, reversible: yes) was 4.6 kcal/mol/M.

B3: Inorganic pyrophosphatase wild type, P50308 (protein)
chain: MKLSPGKNAPDVVNVLVEIPQGSNIKYEYDDEEGVIKVDRVLYTSMNYPFNYGFIPGTLEEDGDPLDVLVITNYQLYPGSVIEVRPIGILYMKDEEGEDAKIVAVPKDKTDPSFSNIKDINDLPQATKNKIVHFFEHYKELEPGKYVKISGWGSATEAKNRIQLAIKRVSGGQ
In the case of B3, the Tm (Sulfolobus acidocaldarius (strain ATCC 33909 / DSM 639 / JCM 8929 / NBRC 15157 / NCIMB 11770), pH 7, Thermal, CD, HEPES 20 mM, MgCl2 5 mM) is reported as 98 °C and the Tm (Sulfolobus acidocaldarius (strain ATCC 33909 / DSM 639 / JCM 8929 / NBRC 15157 / NCIMB 11770), pH 7, Thermal, CD, HEPES 20 mM) is reported as 89 °C.

B4: Streptogrisin-B wild type, P00777 (protein)
chain: MRIKRTSNRSNAARRVRTTAVLAGLAAVAALAVPTANAETPRTFSANQLTAASDAVLGADIAGTAWNIDPQSKRLVVTVDSTVSKAEINQIKKSAGANADALRIERTPGKFTKLISGGDAIYSSTGRCSLGFNVRSGSTYYFLTAGHCTDGATTWWANSARTTVLGTTSGSSFPNNDYGIVRYTNTTIPKDGTVGGQDITSAANATVGMAVTRRGSTTGTHSGSVTALNATVNYGGGDVVYGMIRTNVCAEPGDSGGPLYSGTRAIGLTSGGSGNCSSGGTTFFQPVTEALSAYGVSVY
Protein B4 has an unfolding free energy (Streptomyces griseus, pH 5, 0 °C, GdnHCl, Fluorescence, potassium acetate 10 mM) of 0.71 kcal/mol.

B5: Phosphoglycerate kinase wild type, P09403 (protein)
chain: MRTLLDLDPKGKRVLVRVDYNVPVQDGKVQDETRILESLPTLRHLLAGGASLVLLSHLGRPKGPDPKYSLAPVGEALRAHLPEARFAPFPPGSEEARREAEALRPGEVLLLENVRFEPGEEKNDPELSARYARLGEAFVLDAFGSAHRAHASVVGVARLLPAYAGFLMEKEVRALSRLLKDPERPYAVVLGGAKVSDKIGVIESLLPRIDRLLIGGAMAFTFLKALGGEVGRSLVEEDRLDLAKDLLGRAEALGVRVYLPEDVVAAERIEAGVETRVFPARAIPVPYMGLDIGPKTREAFARALEGARTVFWNGPMGVFEVPPFDEGTLAVGQAIAALEGAFTVVGGGDSVAAVNRLGLKERFGHVSTGGGASLEFLEKGTLPGLEVLEG
For B5, the denaturant m value [3] was 2.7 kcal/mol/M, the “denaturant midpoint (higher = more stable)” value [3] was 2.34 M and the unfolding free energy [3] was 6.32 kcal/mol.

B6: Pilin wild type, Q9A1S2 (protein)
chain: MKLRHLLLTGAALTSFAATTVHGETVVNGAKLTVTKNLDLVNSNALIPNTDFTFKIEPDTTVNEDGNKFKGVALNTPMTKVTYTNSDKGGSNTKTAEFDFSEVTFEKPGVYYYKVTEEKIDKVPGVSYDTTSYTVQVHVLWNEEQQKPVATYIVGYKEGSKVPIQFKNSLDSTTLTVKKKVSGTGGDRSKDFNFGLTLKANQYYKASEKVMIEKTTKGGQAPVQTEASIDQLYHFTLKDGESIKVTNLPVGVDYVVTEDDYKSEKYTTNVEVSPQDGAVKNIAGNSTEQETSTDKDMTITFTNKKDFEVPTGVAMTVAPYIALGIVAVGGALYFVKKKNA
B6 gave a Tm (Streptococcus pyogenes serotype M1, pH 8, Thermal, CD, potassium phosphate buffer 10 mM, transition: 2) of 85.1 °C.

B7: Protein GrpE wild type, Q56236 (protein)
chain: MEERNHENTLEKDLEAVGQEAQALEERLKAAEEELKGLKDKYLRLLADFDNYRKRMEEELKAREREGVLKALRALLPVLDDLDRALEFAEASPESIRQGVRAIRDGFFRILAGLGVEEVPGEGEAFDPRYHEAVGLLPGEPGKVAKVFQRGFRMGEALVRPARVAVGEEKREEADLE
With B7 the unfolding free energy (Thermus thermophilus (strain ATCC 27634 / DSM 579 / HB8), pH 7.5, 25 °C, GdnHCl, CD, Tris-HCl 20 mM, KCl 100 mM, reversible: yes) was 4.13 kcal/mol and the Tm (Thermus thermophilus (strain ATCC 27634 / DSM 579 / HB8), pH 7.5, Thermal, DSC, Hepes-NaOH 20 mM, KCl 100 mM, reversible: yes) was 106 °C.

B8: Alpha-amylase inhibitor HOE-467A wild type, P01092 (protein)
chain: MRVRALRLAALVGAGAALALSPLAAGPASADTTVSEPAPSCVTLYQSWRYSQADNGCAQTVTVKVVYEDDTEGLCYAVAPGQITTVGDGYIGSHGHARYLARCL
In the case of B8, the Tm [4] is reported as 68.3 °C, the “heat capacity change of unfolding” value [4] is reported as 0.69 kcal/mol/K and the “unfolding enthalpy (calorimetric)” value [4] is reported as 56.4 kcal/mol. The “heat capacity change of unfolding” value [5] was 0.69 kcal/mol/K, the “unfolding enthalpy (calorimetric)” value [5] was 26.3 kcal/mol and the unfolding free energy [5] was 6.7 kcal/mol. For the same protein, the Tm [6] was 81.6 °C, the “heat capacity change of unfolding” value [6] was 0.69 kcal/mol/K and the “unfolding enthalpy (calorimetric)” value [6] was 65.6 kcal/mol.

B9: Triosephosphate isomerase, glycosomal wild type, P04789 (protein)
chain: MSKPQPIAAANWKCNGSQQSLSELIDLFNSTSINHDVQCVVASTFVHLAMTKERLSHPKFVIAAQNAIAKSGAFTGEVSLPILKDFGVNWIVLGHSERRAYYGETNEIVADKVAAAVASGFMVIACIGETLQERESGRTAVVVLTQIAAIAKKLKKADWAKVVIAYEPVWAIGTGKVATPQQAQEAHALIRSWVSSKIGADVAGELRILYGGSVNGKNARTLYQQRDVNGFLVGGASLKPEFVDIIKATQ
In the case of B9, the Tm (Trypanosoma brucei brucei, pH 7, Thermal, CD, 3-(N-morpholino)propanesulfonic acid/dithiothreitol 20 mM/0.02 mM, EDTA 0.02 mM) is reported as 52.2 °C, the Tm (Trypanosoma brucei brucei, pH 7.4, Thermal, CD, MOPS 20 mM, EDTA 1 mM, reversible: no) is reported as 51.4 °C and the Tm (Trypanosoma brucei brucei, pH 7.5, Thermal, CD, TEA 0.9 mM, NaCl 1.2 mM) is reported as 44 °C and 48 °C.

B10: Small ribosomal subunit protein bS6 wild type, P23370 (protein)
chain: MRRYEVNIVLNPNLDQSQLALEKEIIQRALENYGARVEKVEELGLRRLAYPIAKDPQGYFLWYQVEMPEDRVNDLARELRIRDNVRRVMVVKSQEPFLANA
With B10 the denaturant m value [7] was 2.5 kcal/mol/M and the unfolding free energy [7] was 8.5 kcal/mol.

B11: Cytochrome P450 119 wild type, Q55080 (protein)
chain: MYDWFSEMRKKDPVYYDGNIWQVFSYRYTKEVLNNFSKFSSDLTGYHERLEDLRNGKIRFDIPTRYTMLTSDPPLHDELRSMSADIFSPQKLQTLETFIRETTRSLLDSIDPREDDIVKKLAVPLPIIVISKILGLPIEDKEKFKEWSDLVAFRLGKPGEIFELGKKYLELIGYVKDHLNSGTEVVSRVVNSNLSDIEKLGYIILLLIAGNETTTNLISNSVIDFTRFNLWQRIREENLYLKAIEEALRYSPPVMRTVRKTKERVKLGDQTIEEGEYVRVWIASANRDEEVFHDGEKFIPDRNPNPHLSFGSGIHLCLGAPLARLEARIAIEEFSKRFRHIEILDTEKVPNEVLNGYKRLVVRLKSNE
In the case of B11, the Tm (Sulfolobus acidocaldarius (strain ATCC 33909 / DSM 639 / JCM 8929 / NBRC 15157 / NCIMB 11770), pH 7.4, Thermal, absorbance, Tris) is reported as 91 °C.

B12: wild type, Q53W59 (protein)
chain: MKRLSLREAWPYLKDLQQDPLAVLLEWGRAHPRLFLPLPRFPLALIFDPEGVEGALLAEGTTKATFQYRALSRLTGRGLLTDWGKSWKEARKALKDPFLPKSVRGYREAMEEEAWAFFGEWRGEERDLDHEMLALSLRLLGRALFGKPLSPSLAEHALKALDRIMAQTRSPLALLDLAAEARFRKDRGALYREAEALIVHPPLSHLPRERALSEAVTLLVAGHETVASALTWSFLLLSHRPDWQKRVAESEEAALAAFQEALRLYPPAWILTRRLERPLLLGEDRLPQGTTLVLSPYVTQRLYFPEGEAFQPERFLAERGTPSGRYFPFGLGQRLCLGRDFALLEGPIVLRAFFRRFRLDPLPFPRVLAQVTLRPEGGLPARPREGVRA
With B12 the “heat capacity change of unfolding” value [8] was 1.15 kcal/mol/K, the “unfolding enthalpy (van 't Hoff)” value [8] was 71 kcal/mol and the unfolding free energy [8] was 5.74 kcal/mol. The “heat capacity change of unfolding” value [9] was 1.17 kcal/mol/K, the “unfolding enthalpy (van 't Hoff)” value [9] was 61.7 kcal/mol and the unfolding free energy [9] was 4.3 kcal/mol. For the same protein, the Tm (Thermus thermophilus (strain ATCC 27634 / DSM 579 / HB8), pH 7.4, Thermal, CD, Potassium phosphate 50 mM, reversible: Yes) was 87 °C and 83.7 °C, the Tm [10] was 88 °C and the “heat capacity change of unfolding” value [10] was 1.14 kcal/mol/K. For the same protein, the “unfolding enthalpy (calorimetric)” value [10] was 71 kcal/mol.

B13: Divalent-cation tolerance protein CutA wild type, Q7SIA8 (protein)
chain: MEEVVLITVPSEEVARTIAKALVEERLAACVNIVPGLTSIYRWQGEVVEDQELLLLVKTTTHAFPKLKERVKALHPYTVPEIVALPIAEGNREYLDWLRENTG
With B13 the Tm (Thermus thermophilus (strain ATCC 27634 / DSM 579 / HB8), pH 7, Thermal, DSC, potassium phosphate 50 mM, reversible: No) was 113 °C.
